Results: the Immune Epitope Database (IEDB)

target: HLA-A*02:01; experiment: IEDB peptide-MHC binding, purified MHC/competitive/radioactivity; ≥ and ≤ were set here for values at or beyond the usual limits of such assays; details: source organism: Vaccinia virus WR

Row | Sequence | IC50
1 | IMAFILGIII | 1110 nM
2 | IMEIVSHLRA | 1190 nM
3 | IMRNFLRSI | 2060 nM
4 | IMRNFLRSIA | 813 nM
5 | ITLILSNKLL | 2200 nM
6 | IVSHLRASTT | 896 nM
7 | KIIAVFDSKL | 978 nM
8 | KIILFQNNDI | 3660 nM
9 | KILSDENYL | 121 nM
10 | KILSDENYLL | 15 nM
11 | KINEMVDEL | 291 nM
12 | KINPLLDEPL | 1470 nM
13 | KIVQLPKRGV | 2240 nM
14 | KLLNMRDLI | 18 nM
15 | KLLNMRDLIV | 1.1 nM
16 | KLLSTSNVIT | 1120 nM
17 | KLPTWLGAA | 207 nM
18 | KLPTWLGAAI | 226 nM

Row | Sequence | IC50
19 | KLYGYASLT | 326 nM
20 | KTIISEEYL | 694 nM
21 | LAELLEMKYA | 2510 nM
22 | LALTDVEKRI | 1420 nM
23 | LILSNKLLYA | 169 nM
24 | LIYRQLTSNV | 663 nM
25 | LLEQLIENI | 1570 nM
26 | LLKCVSDSWL | 1530 nM
27 | LLLENKSLTI | 439 nM
28 | LLNMRDLIV | 42 nM
29 | LLNMRDLIVT | 2020 nM
30 | LLNVQTLISL | 73 nM
31 | LLPLTSLVI | 1180 nM
32 | LLVQYGAKI | 1770 nM
33 | LQISRVNDL | 1700 nM
34 | MLDDFSAGA | 0.43 nM
35 | MMQNDYGGM | 1280 nM

target: HLA-A*02:02; experiment: as above; details: source organism: Hepacivirus hominis

Row | Sequence | IC50
36 | ILLSRCLWWT | 4740 nM
37 | KLFPRLPGI | 8.3 nM
38 | KLLPQLPGV | 51 nM
39 | LLLLSVGVGI | 2570 nM
40 | LLLSTTEWQV | 18 nM
41 | LLMALPHQA | 52 nM
42 | LLSTTEWQV | 4.9 nM
43 | LLSVGVGIYL | 12 nM
44 | LLYFILFFV | 227 nM
45 | LLYFILFFVA | 3740 nM
46 | MLCLLLLSV | 210 nM
47 | MLLIAQAEA | 141 nM
48 | MLVNGDDLVV | 54 nM

same assay, conditions: source organism: Mammarenavirus choriomeningitidis

Row | Sequence | IC50
49 | LSAEELMSL | 65 nM

same assay, conditions: source organism: Mammarenavirus lassaense

Row | Sequence | IC50
50 | LLMEGLKLLS | 78 nM
51 | LLWDYMCIS | 147 nM
52 | LNISGYNFSL | 16 nM

same assay, conditions: source organism: Mammarenavirus machupoense

Row | Sequence | IC50
53 | LLDCIMYQS | 1540 nM

same assay, conditions: source organism: SARS-CoV1

Row | Sequence | IC50
54 | KLFTIAMWLL | 8.5 nM
55 | KLLIVLTCI | 260 nM
56 | KLWAQCVQL | 13 nM
57 | LLDDFVEII | 136 nM
58 | LLLEWLAEVV | 0.31 nM
59 | LLLSICLGSL | 20 nM
60 | LLVAAGMEA | 17 nM
61 | LLVTLAILTA | 4.4 nM
62 | LMLKATLLCV | 3.4 nM
63 | LMWFIISIV | 60 nM
64 | LVFLILCFT | 2490 nM
65 | LVTSFLLMIV | 31 nM
66 | NLAPHLLLIV | 5.1 nM

same assay, conditions: source organism: Vaccinia virus WR

Row | Sequence | IC50
67 | ILHNIYRLFT | 125 nM
68 | ILSLETVKM | 4.8 nM
69 | ILSNKLLYAA | 8.1 nM
70 | IMAFILGIII | 632 nM
71 | IMEIVSHLRA | 955 nM
72 | IMRNFLRSI | 485 nM
73 | IMRNFLRSIA | 60 nM
74 | ITLILSNKLL | 1090 nM
75 | IVSHLRASTT | 139 nM
76 | KIIAVFDSKL | 25 nM
77 | KIILFQNNDI | 1610 nM
78 | KILSDENYL | 196 nM
79 | KILSDENYLL | 25 nM
80 | KINEMVDEL | 1.4 nM
81 | KINPLLDEPL | 53 nM
82 | KIVQLPKRGV | 4120 nM
83 | KLLNMRDLI | 496 nM
84 | KLLNMRDLIV | 194 nM
85 | KLLSTSNVIT | 2260 nM

Row | Sequence | IC50
86 | KLPTWLGAA | 499 nM
87 | KLPTWLGAAI | 103 nM
88 | KLYGYASLT | 76 nM
89 | KTIISEEYL | 916 nM
90 | LAELLEMKYA | 999 nM
91 | LALTDVEKRI | 199 nM
92 | LILSNKLLYA | 468 nM
93 | LIYRQLTSNV | 79 nM
94 | LLEQLIENI | 702 nM
95 | LLKCVSDSWL | 76 nM
96 | LLLENKSLTI | 982 nM
97 | LLNMRDLIV | 665 nM
98 | LLNMRDLIVT | 1420 nM
99 | LLNVQTLISL | 24 nM
100 | LLPLTSLVI | 2390 nM
101 | LLVQYGAKI | 206 nM
102 | LQISRVNDL | 90 nM
103 | MLDDFSAGA | 68 nM
104 | MMQNDYGGM | 1080 nM

target: HLA-A*02:06; experiment: as above; details: source organism: Hepacivirus hominis

Row | Sequence | IC50
105 | ILLSRCLWWT | 246 nM
106 | KLFPRLPGI | 2.2 nM
107 | KLLPQLPGV | 1.7 nM
108 | LLLLSVGVGI | 714 nM
109 | LLLSTTEWQV | 13 nM
110 | LLMALPHQA | 1560 nM
111 | LLSTTEWQV | 333 nM
112 | LLSVGVGIYL | 575 nM
113 | LLYFILFFV | 504 nM
114 | LLYFILFFVA | 993 nM
115 | MLCLLLLSV | 326 nM
116 | MLLIAQAEA | 645 nM
117 | MLVNGDDLVV | 186 nM

same assay, conditions: source organism: Mammarenavirus choriomeningitidis

Row | Sequence | IC50
118 | LSAEELMSL | 66 nM

same assay, conditions: source organism: Mammarenavirus lassaense

Row | Sequence | IC50
119 | LLMEGLKLLS | 1750 nM
120 | LLWDYMCIS | 408 nM
121 | LNISGYNFSL | 421 nM

same assay, conditions: source organism: Mammarenavirus machupoense

Row | Sequence | IC50
122 | LLDCIMYQS | 3280 nM

same assay, conditions: source organism: SARS-CoV1

Row | Sequence | IC50
123 | KLFTIAMWLL | 262 nM
124 | KLLIVLTCI | 449 nM
125 | KLWAQCVQL | 9.5 nM
126 | LLDDFVEII | 159 nM
127 | LLLEWLAEVV | 0.52 nM
128 | LLLSICLGSL | 258 nM
129 | LLVAAGMEA | 117 nM
130 | LLVTLAILTA | 32 nM
131 | LMLKATLLCV | 63 nM
132 | LMWFIISIV | 27 nM
133 | LVFLILCFT | 1370 nM
134 | LVTSFLLMIV | 161 nM
135 | NLAPHLLLIV | 125 nM

same assay, conditions: source organism: Vaccinia virus WR

Row | Sequence | IC50
136 | ILHNIYRLFT | 1210 nM
137 | ILSLETVKM | 280 nM
138 | ILSNKLLYAA | 150 nM
139 | IMAFILGIII | 3190 nM
140 | IMEIVSHLRA | 4410 nM
141 | IMRNFLRSI | 3920 nM
142 | IMRNFLRSIA | 544 nM
143 | ITLILSNKLL | 3890 nM
144 | IVSHLRASTT | 173 nM
145 | KIIAVFDSKL | 59 nM
146 | KIILFQNNDI | 2170 nM
147 | KILSDENYL | 28 nM
148 | KILSDENYLL | 16 nM
149 | KINEMVDEL | 317 nM
150 | KINPLLDEPL | 19 nM
151 | KIVQLPKRGV | 2250 nM
152 | KLLNMRDLI | 44 nM
153 | KLLNMRDLIV | 2.8 nM
154 | KLLSTSNVIT | 1550 nM

Row | Sequence | IC50
155 | KLPTWLGAA | 9.4 nM
156 | KLPTWLGAAI | 295 nM
157 | KLYGYASLT | 1990 nM
158 | KTIISEEYL | 150 nM
159 | LAELLEMKYA | 2450 nM
160 | LALTDVEKRI | 2410 nM
161 | LILSNKLLYA | 36 nM
162 | LIYRQLTSNV | 169 nM
163 | LLEQLIENI | 539 nM
164 | LLKCVSDSWL | 4730 nM
165 | LLLENKSLTI | 1320 nM
166 | LLNMRDLIV | 225 nM
167 | LLNMRDLIVT | 707 nM
168 | LLNVQTLISL | 97 nM
169 | LLPLTSLVI | 1430 nM
170 | LLVQYGAKI | 1140 nM
171 | LQISRVNDL | 229 nM
172 | MLDDFSAGA | 114 nM
173 | MMQNDYGGM | 1660 nM
